Where a chain is given by its changes, count along the chain named.
Assays:
Assay in all cases: cell-based or functional assay
recombinant human IL-33 = target: T1, recombinant human IL-33 (human, UniProt O95760 112-270, limits assumed)
T1 sequence (looked up): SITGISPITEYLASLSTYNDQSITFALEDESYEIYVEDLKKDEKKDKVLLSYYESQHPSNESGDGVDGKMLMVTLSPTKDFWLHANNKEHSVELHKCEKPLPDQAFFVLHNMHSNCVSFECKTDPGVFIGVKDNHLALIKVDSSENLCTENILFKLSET

recombinant human IL-4 = target: T2, recombinant human IL-4 (human, UniProt P05112 25-153)
T2 sequence (looked up): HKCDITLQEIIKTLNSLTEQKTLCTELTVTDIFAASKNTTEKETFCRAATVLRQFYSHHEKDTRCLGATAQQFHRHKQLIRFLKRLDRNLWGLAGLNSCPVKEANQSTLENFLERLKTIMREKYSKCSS

recombinant human IL-13 = recombinant human IL-13 (human, UniProt P35225 35-146)
human IL-13 = human IL-13 (human, UniProt P35225 35-146)
human IL-33 mm2 Cys = target: T3, human IL-33 mm2 Cys (human, UniProt O95760 112-270, limits assumed)
T3 sequence (looked up): T1 sequence (looked up) with C97S, C116S, C121S, C148S

[1] = target: recombinant human TSLP (glycosylated long form) (human, UniProt Q969D9 29-159)

recombinant human IL-13, sequence (P35225 35-146 limits assumed): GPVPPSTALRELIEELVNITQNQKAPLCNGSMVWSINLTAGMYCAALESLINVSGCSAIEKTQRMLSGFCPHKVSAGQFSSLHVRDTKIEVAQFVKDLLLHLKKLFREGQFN
human IL-13, sequence (P35225 35-146 limits assumed, form in doubt): as the sequence (P35225 35-146 limits assumed) above

B1: IL13433-1042 (other)
heavy: EVQLVESGGGLVQPGGSLRLSCAASGFTFSSYWMYWVRQAPGKGLEWVAAITPNAGEDYYPESVKGRFTISRDNAKNSLYLQMNSLRAEDTAVYYCARGQYYYTKYSLGYWGQGTLVTVSSASTKGPSVFPLAPSSKSTSGGTAALGCLVKDYFPEPVTVSWNSGALTSGVHTFPAVLQSSGLYSLSSVVTVPSSSLGTQTYICNVNHKPSNTKVDKKVEPKSCRKTHTCPRCPAPEAAGAPSVFLFPPKPKDTLMISRTPEVTCVVVDVSHEDPEVKFNWYVDGVEVHNAKTKPREEQYNSTYRVVSVLTVLHQDWLNGKEYKCKVSNKALPAPIEKTISKAKGQPREPQVYTLPPSREEMTKNQVSLTCLVKGFYPSDIAVEWESNGQPENNYKTTPPVLDSDGSFFLYSRLTVDKSRWQQGNVFSCSVLHEALHSHYTQKSLSLSPGK
chain 1: DIQMTQSPSSLSASVGDRVTITCKASESVDHFGWSLVHWYQQKPGKAPKLLIYRASNLESGVPSRFSGSGSGTDFTLTISSLQPEDFATYYCQQSNEDPWTFGGGTKVEIKRTVAAPSVFIFPPSDEQLKSGTASVVCLLNNFYPREAKVQWKVDNALQSGNSQESVTEQDSKDSTYSLSSTLTLSKADYEKHKVYACEVTHQGLSSPVTKSFNRGECGGGGSEVTLRESGPALVKPTQTLTLTCTFSGFSLSNFGEGLSWIRQPPGKGLEWLAHIYWDDDKRYNPSLKSRLTISKDTSRNQVVLTMTNMDPVDTATYYCARRETVFYWYFDVWGQGTTVTVSSASTKGPSVFPLAPSSKSTSGGTAALGCLVKDYFPEPVTVSWNSGALTSGVHTFPAVLQSSGLYSLSSVVTVPSSSLGTQTYICNVNHKPSNTKVDKKVEPKSCEKTHTCPECPAPEAAGAPSVFLFPPKPKDTLMISRTPEVTCVVVDVSHEDPEVKFNWYVDGVEVHNAKTKPREEQYNSTYRVVSVLTVLHQDWLNGKEYKCKVSNKALPAPIEKTISKAKGQPREPQVYTLPPSREEMTKNQVSLTCEVKGFYPSDIAVEWESNGQPENNYKTTPPVLDSDGSFFLYSKLTVDKSRWQQGNVFSCSVLHEALHSHYTQKSLSLSPGK
light 1: DIQMTQSPSSLSASVGDRVTITCRASQPIHNHLDWYQQKPGKAPKLLIYFGKNLQEGVPSRFSGSGSGTDFTLTISSLQPEDFATYYCFQYKKGWSFGGGTKVEIKRTVAAPSVFIFPPSDEQLKSGTASVVCLLNNFYPREAKVQWKVDNALQSGNSQESVTEQDSKDSTYSLSSTLTLSKADYEKHKVYACEVTHQGLSSPVTKSFNRGEC
light 2: DIQMTQSPSSLSASVGDRVTITCRASQSVDEEGDSYMNWYQQKPGKAPKLLIYAASNLESGVPSRFSGSGSGTDFTLTISSLQPEDFATYYCQQSNEDPPTFGGGTKVEIKRTVAAPSVFIFPPSDEQLKSGTASVVCLLNNFYPREAKVQWKVDNALQSGNSQESVTEQDSKDSTYSLSSTLTLSKADYEKHKVYACEVTHQGLSSPVTKSFNRGEC
chain 2: EVQLVESGGGLVQPGGSLRLSCAASGFTFSSYAMSWVRQAPGKGLEWVASISSGDTTYYPDSVKGRFTISRDNAKNSLYLQMNSLRAEDTAVYYCARNEGYYFGLTLWGQGTLVTVSSASTKGPSVFPLAPSSKSTSGGTAALGCLVKDYFPEPVTVSWNSGALTSGVHTFPAVLQSSGLYSLSSVVTVPSSSLGTQTYICNVNHKPSNTKVDKKVEPKSC
IL-33 WT Activation of SEAP Reporter Cells, potency of cytokine neutralization (recombinant human IL-33): 0.028 nM | IL-4 Induced CD23 Expression, potency of cytokine neutralization (recombinant human IL-4): 0.0071 nM | IL-13 Induced CD23 Expression, potency of cytokine neutralization (recombinant human IL-13): 0.0124 nM

B2: IL13433-1270 (other)
heavy: B1 heavy with L132K, V189S, R225D, R232P, Y353C, T370W, R413K
chain 1: B1 chain 1 with L355E, S410G, E448D, E455P, S581C, T593S, E595A, Y634V
light 1: B1 light 1 with V132S, S175D
light 2: B1 light 2 with E97K, V137S, S180K
chain 2: B1 chain 2
IL-33 WT Activation of SEAP Reporter Cells, potency of cytokine neutralization (recombinant human IL-33): 0.012 nM | IL-4 Induced CD23 Expression, potency of cytokine neutralization (recombinant human IL-4): 0.0165 nM | IL-13 Induced CD23 Expression, potency of cytokine neutralization (recombinant human IL-13): 0.00758 nM

B3: IL13433-1275 (other)
heavy: B1 heavy with R225D, R232P, T370W, R413K
chain 1: B1 chain 1 with E448D, E455P, T593S, E595A, Y634V
light 1: B1 light 1
light 2: B1 light 2 with E97K
chain 2: B1 chain 2
IL-33 WT Activation of SEAP Reporter Cells, potency of cytokine neutralization (recombinant human IL-33): 0.013 nM | IL-4 Induced CD23 Expression, potency of cytokine neutralization (recombinant human IL-4): 0.0149 nM | IL-13 Induced CD23 Expression, potency of cytokine neutralization (recombinant human IL-13): 0.00888 nM

B4: IL13433-1261 (other)
heavy: B1 heavy with R225D, R232P
chain 1: B1 chain 1 with E448D, E455P
light 1: B1 light 1
light 2: B1 light 2 with E97K
chain 2: B1 chain 2
IL-33 WT Activation of SEAP Reporter Cells, potency of cytokine neutralization (recombinant human IL-33): 0.021 nM | IL-4 Induced CD23 Expression, potency of cytokine neutralization (recombinant human IL-4): 0.0139 nM | IL-13 Induced CD23 Expression, potency of cytokine neutralization (recombinant human IL-13): 0.00897 nM

B5: IL13-1283 (antibody, human IgG1, kappa, V domains shown)
VH: EVQLVESGGGLVQPGGSLRLSCAASGFTFISYAMSWVRQAPGKGLEWVASISSGGNTYYPDSVKGRFTISRDNAKNSLYLQMNSLRAEDTAVYYCARLDGYYFGFAYWGQGTLVTVSS
VL: DIQMTQSPSSLSASVGDRVTITCKASESVDNYGKSLMHWYQQKPGKAPKLLIYRASNLESGVPSRFSGSGSGTDFTLTISSLQPEDFATYYCQQSNEDPWTFGGGTKVEIKR
CD23 IC50 [pM] (human IL-13): 261 pM | pSTAT6 IC50 [pM] (human IL-13): 427 pM

B6: IL13433-1279 (other)
VH 1: B5 VH with I30S, G55D, N56T, L98N, D99E, F105L, A106T, Y107L
VL 1: DIQMTQSPSSLSASVGDRVTITCKASESVDHFGWSLVHWYQQKPGKAPKLLIYRASNLESGVPSRFSGSGSGTDFTLTISSLQPEDFATYYCQQSNEDPWTFGGGTKVEIK
VH 2: EVTLRESGPALVKPTQTLTLTCTFSGFSLSNFGEGLSWIRQPPGKGLEWLAHIYWDDDKRYNPSLKSRLTISKDTSRNQVVLTMTNMDPVDTATYYCARRETVFYWYFDVWGQGTTVTVSS
VL 2: DIQMTQSPSSLSASVGDRVTITCRASQSVDEEGDSYMNWYQQKPGKAPKLLIYAASNLESGVPSRFSGSGSGTDFTLTISSLQPEDFATYYCQQSNKDPPTFGGGTKVEIK
VH 3: EVQLVESGGGLVQPGGSLRLSCAASGFTFSSYWMYWVRQAPGKGLEWVAAITPNAGEDYYPESVKGRFTISRDNAKNSLYLQMNSLRAEDTAVYYCARGQYYYTKYSLGYWGQGTLVTVSS
VL 3: DIQMTQSPSSLSASVGDRVTITCRASQPIHNHLDWYQQKPGKAPKLLIYFGKNLQEGVPSRFSGSGSGTDFTLTISSLQPEDFATYYCFQYKKGWSFGGGTKVEIK
IL-33 WT Activation of SEAP Reporter Cells, potency of cytokine neutralization (recombinant human IL-33): 0.013 nM | IL-4 Induced CD23 Expression, potency of cytokine neutralization (recombinant human IL-4): 0.0137 nM | IL-13 Induced CD23 Expression, potency of cytokine neutralization (recombinant human IL-13): 0.00913 nM

B7: IL33-0217 (antibody, human IgG1, kappa, V domains shown)
VH: B6 VH 3 with Q100H, K105S
VL: DIQMTQSPSSLSASVGDRVTITCRASQNINKHLDWYQQKPGKAPKLLIYFTNNLQTGVPSRFSGSGSGTDFTLTISSLQPEDFATYYCFQYNQGWTFGGGTKVEIKR
IC50 [pM] versus human IL-33 mm2 Cys (HEK-Blue SEAP) (human IL-33 mm2 Cys): 158 pM

B8: IL33-0220 (antibody, human IgG1, kappa, V domains shown)
VH: B6 VH 3 with Q100H, K105S
VL: B7 VL with N30Y
IC50 [pM] versus human IL-33 mm2 Cys (HEK-Blue SEAP) (human IL-33 mm2 Cys): 176 pM

B9: IL33-0219 (antibody, human IgG1, kappa, V domains shown)
VH: B6 VH 3 with Q100H, K105S
VL: B7 VL with N30Q
IC50 [pM] versus human IL-33 mm2 Cys (HEK-Blue SEAP) (human IL-33 mm2 Cys): 142 pM

B10: IL33-0224 (antibody, human IgG1, V domains shown)
VH: B6 VH 3 with Q100H, K105S
VL: B6 VL 3 with H30S, N31K, G51T, K52N, E56T, K92N, K93Q, S96T
IC50 [pM] versus human IL-33 mm2 Cys (HEK-Blue SEAP) (human IL-33 mm2 Cys): 115 pM

B11: TSLP-0820 (antibody, human IgG1, lambda, V domains shown)
VH: EMQLVESGGGLVQPGGSLRLSCAASGFTFRTYGMHWVRQAPGKGLEWVAVIWYDGSNKHYADSVKGRFTISRDNAKNSLYLQMNSLRAEDTAVYYCARAPQWYLVHEAFDIWGQGTMVTVSS
VL: SYVLTQPPSVSVAPGQTARITCGGNNLGSKSVHWYQQKPGQAPVLVVYDDSDRPSWIPERFSGSNSGNTATLTISRGEAGDEADYYCQVWDSSSDHVVFGGGTKLTVLG
a-TSLP TARC bioassay (fold change to TSLP-0001) [1]: 2.5 fold

B12: TSLP-2002 (antibody, human IgG1, lambda, V domains shown)
VH: B11 VH
VL: B11 VL with S51K, S93K
a-TSLP TARC bioassay (fold change to TSLP-0001) [1]: 5.1 fold

B13: TSLP-2000 (antibody, human IgG1, lambda, V domains shown)
VH: B11 VH
VL: B11 VL with D95K
a-TSLP TARC bioassay (fold change to TSLP-0001) [1]: 7.2 fold

B14: TSLP-2004 (antibody, human IgG1, lambda, V domains shown)
VH: B11 VH
VL: B11 VL with S92K
a-TSLP TARC bioassay (fold change to TSLP-0001) [1]: 6.4 fold
